In article PMC4273445 (eLife, 2014):

Key:
Test in all cases: SPR
[1] = target: fHbp 1.P15 (N. meningitidis) (UniProt E6MV22)
[2] = target: fHbp 1.P276 (N. meningitidis) (UniProt E6MV22)
[3] = target: fHbp 2.P22 (N. meningitidis) (UniProt E6MV22)
[4] = target: fHbp 3.P45 (N. meningitidis) (UniProt E6MV22)
[5] = target: fHbp V1.1 Asn108 to Ala (N. meningitidis)
[6] = target: fHbp V1.1 Asp262 to Ala (N. meningitidis)
[7] = target: fHbp V1.1 Gln103 to Ala (N. meningitidis)
[8] = target: fHbp V1.1 His248 to Ala (N. meningitidis)
[9] = target: fHbp V1.1 His313 to Ala (N. meningitidis)
[10] = target: fHbp V1.1 Ile179 to Ala (N. meningitidis)
[11] = target: fHbp V1.1 Ile196 to Ala (N. meningitidis)
[12] = target: fHbp V1.1 Leu171 to Ala (N. meningitidis)
[13] = target: fHbp V1.1 Lys268 to Ala (N. meningitidis)
[14] = target: fHbp V1.1 Phe194 to Ala (N. meningitidis)
[15] = target: fHbp V1.1 Pro265 to Ala (N. meningitidis)
[16] = target: fHbp V1.1 Ser104 to Ala (N. meningitidis)
[17] = target: fHbp V1.1 Val149 to Ala (N. meningitidis)
[18] = target: fHbp V2.21 Ala (at V1 Pro265) to Pro (N. meningitidis)
[19] = target: fHbp V2.21 Arg (at V1 Arg106) to Ala (N. meningitidis)
[20] = target: fHbp V2.21 Asp (at V1 Asp150) to Ala (N. meningitidis)
[21] = target: fHbp V2.21 Glu (at V1 Glu283) to Ala (N. meningitidis)
[22] = target: fHbp V2.21 Ile (at V1 Ile154) to Ala (N. meningitidis)
[23] = target: fHbp V2.21 Ile (at V1 Ser185) to Ala (N. meningitidis)
[24] = target: fHbp V2.21 Leu (at V1 Leu156) to Ala (N. meningitidis)
[25] = target: fHbp V2.21 Lys (at V1 Lys264) to Ala (N. meningitidis)
[26] = target: fHbp V2.21 Ser (at V1 Gln193) to Ala (N. meningitidis)
[27] = target: fHbp V2.21 Thr (at V1 Glu304) to Ala (N. meningitidis)
[28] = target: fHbp V2.21 Val (at V1 Ile196) to Ala (N. meningitidis)
[29] = target: fHbp V2.21 Val (at V1 Ile311) to Ala (N. meningitidis)
[30] = target: fHbp V3.28 Asn (at V1 Asn108) to Ala (N. meningitidis)
[31] = target: fHbp V3.28 Glu (at V1 Asp262) to Ala (N. meningitidis)
[32] = target: fHbp V3.28 Glu (at V1 Glu283) to Ala (N. meningitidis)
[33] = target: fHbp V3.28 Glu (at V1 Gly267) to Ala (N. meningitidis)
[34] = target: fHbp V3.28 Gly (at V1 Glu109) to Ala (N. meningitidis)
[35] = target: fHbp V3.28 His (at V1 His248) to Ala (N. meningitidis)
[36] = target: fHbp V3.28 His (at V1 Ser288) to Ala (N. meningitidis)
[37] = target: fHbp V3.28 Ile (at V1 Ile147) to Ala (N. meningitidis)
[38] = target: fHbp V3.28 Ile (at V1 Ile273) to Ala (N. meningitidis)
[39] = target: fHbp V3.28 Lys (at V1 His184) to Ala (N. meningitidis)
[40] = target: fHbp V3.28 Lys (at V1 Lys92) to Ala (N. meningitidis)
[41] = target: fHbp V3.28 Phe (at V1 Phe292) to Ala (N. meningitidis)
[42] = target: fHbp V3.28 Val (at V1 Ile196) to Ala (N. meningitidis)
[43] = target: fHbp V2.21 Glu (at V1 Asp262) to Ala (N. meningitidis)
[44] = target: fHbp V2.21 Phe (at V1 Phe292) to Ala (N. meningitidis)
[45] = target: fHbp V2.21 Val (at V1 Leu171) to Ala (N. meningitidis)
[46] = target: fHbp V3.28 Thr (at V1 Ser286) to Ala (N. meningitidis)
[47] = target: factor H binding protein (fHbp) V1.1 (N. meningitidis) (UniProt Q9JXV4)

CFH67, CCP domains 6 and 7 of complement factor H, sequence (P08603 321-443): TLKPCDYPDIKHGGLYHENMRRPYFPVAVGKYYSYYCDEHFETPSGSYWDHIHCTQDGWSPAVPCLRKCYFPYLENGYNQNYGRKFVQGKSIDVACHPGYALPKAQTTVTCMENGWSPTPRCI

Substance: CFH67, CCP domains 6 and 7 of complement factor H (from UniProt P08603 321-443) (domain or fragment)
- Kd [1]: 11.7 nM
- Kd [2]: 8.9 nM
- Kd [3]: 2.13 nM
- Kd [4]: 0.227 nM
- Kd [5]: 3.73 nM
- Kd [6]: 6.54 nM
- Kd [7]: 7.03 nM
- Kd [8]: 3.36 nM
- Kd [9]: 23.5 nM
- Kd [10]: 8.06 nM
- Kd [11]: 1.07 nM
- Kd [12]: 7.45 nM
- Kd [13]: 3.53 nM
- Kd [14]: 5.04 nM
- Kd [15]: 3.62 nM
- Kd [16]: 9.78 nM
- Kd [17]: 9.28 nM
- Kd [18]: 3.7 nM
- Kd [19]: 5.99 nM
- Kd [20]: 3.24 nM
- Kd [21]: 197 nM
- Kd [22]: 25.8 nM
- Kd [23]: 13.3 nM
- Kd [24]: 4.7 nM
- Kd [25]: 16.7 nM
- Kd [26]: 3.95 nM
- Kd [27]: 19.2 nM
- Kd [28]: 40 nM
- Kd [29]: 6.07 nM
- Kd [30]: 3.71 nM
- Kd [31]: 6.4 nM
- Kd [32]: 11.9 nM
- Kd [33]: 1.45 nM
- Kd [34]: 2.82 nM
- Kd [35]: 2.97 nM
- Kd [36]: 7.66 nM
- Kd [37]: 33.6 nM
- Kd [38]: 0.201 nM
- Kd [39]: 2.76 nM
- Kd [40]: 2.67 nM
- Kd [41]: 1.97 nM
- Kd [42]: 11.6 nM

Substance: CFHR3_(12), the first two (N-terminal) CCP domains of complement factor H-related 3 (from UniProt Q02985 19-330) (domain or fragment)
- Kd [1]: 56.4 nM
- Kd [2]: 37.9 nM
- Kd [3]: 2.58 nM
- Kd [4]: 0.779 nM
- Kd [5]: 90.7 nM
- Kd [6]: 89.2 nM
- Kd [8]: 82.5 nM
- Kd [9]: 50.5 nM
- Kd [10]: 1270 nM
- Kd [11]: 35.2 nM
- Kd [12]: 724 nM
- Kd [13]: 43 nM
- Kd [14]: 160 nM
- Kd [15]: 130 nM
- Kd [16]: 382 nM
- Kd [17]: 6540 nM
- Kd [18]: 4.12 nM
- Kd [19]: 5.26 nM
- Kd [20]: 3.64 nM
- Kd [43]: 5.43 nM
- Kd [21]: 22.6 nM
- Kd [22]: 14.8 nM
- Kd [23]: 6.48 nM
- Kd [24]: 7.54 nM
- Kd [25]: 30.2 nM
- Kd [44]: 19.4 nM
- Kd [26]: 3.38 nM
- Kd [27]: 16.3 nM
- Kd [29]: 9.68 nM
- Kd [45]: 9.81 nM
- Kd [30]: 3.21 nM
- Kd [31]: 6.86 nM
- Kd [32]: 20.6 nM
- Kd [33]: 2.57 nM
- Kd [34]: 1.96 nM
- Kd [35]: 3.61 nM
- Kd [36]: 9.65 nM
- Kd [37]: 17.9 nM
- Kd [38]: 0.292 nM
- Kd [39]: 3.05 nM
- Kd [40]: 3.39 nM
- Kd [41]: 2.91 nM
- Kd [46]: 33.1 nM
- Kd [42]: 14.8 nM
- Kd [47]: 59.4 nM
